Assay results as given in patent US20210403576A1 (HELIXMITH, published 2021).

B1: VH0/Vk0 (antibody, IgG1, V domains shown)
VH: QVQLVQSGAEVKKPGESLRISCQGSGYSFPTHWITWVRQMPGKGLEWMGTIDPTDSYNFYGPSFQGHVTISADSSSSTAYLQWSSLKASDTAMYYCARDGNYYDSRGYYYDTFDMWGQGTLVTVSS
VL: DIQMTQSPSFLSASVGDRVTITCRASQGISTYLAWYQQKPGTAPKLLIYSASTLESGVPSRFSGSGSGTDFTLTISSLQPEDSATYYCQQADSFPLTFGGGTKVEIK
notes: Full IgG1/kappa with the variable domains of 1E4; also called 1E4 antibody variant including the constant domain where the residues were substituted
B2: VH2/Vk2 (antibody, IgG1, V domains shown)
VH: EVQLVQSGAEVKKPGESLKISCKGSGYSFPTHWITWVRQMPGKGLEWMGTIDPTDSYNFYGPSFQGQVTISADKSISTAYLQWSSLKASDTAMYYCARDGNYYDSRGYYYDTFDMWGQGTLVTVSS
VL: DIQMTQSPSSLSASVGDRVTITCRASQGISTYLAWYQQKPGKAPKLLIYSASTLESGVPSRFSGSGSGTDFTLTISSLQPEDFATYYCQQADSFPLTFGGGTKVEIK
notes: Full IgG1/kappa expressed in HEK 293 EBNA cells
B3: VH2/Vk0 (antibody, IgG1, V domains shown)
VH: EVQLVQSGAEVKKPGESLKISCKGSGYSFPTHWITWVRQMPGKGLEWMGTIDPTDSYNFYGPSFQGQVTISADKSISTAYLQWSSLKASDTAMYYCARDGNYYDSRGYYYDTFDMWGQGTLVTVSS
VL: DIQMTQSPSFLSASVGDRVTITCRASQGISTYLAWYQQKPGTAPKLLIYSASTLESGVPSRFSGSGSGTDFTLTISSLQPEDSATYYCQQADSFPLTFGGGTKVEIK
notes: as for B2
B4: VH0/Vk2 (antibody, IgG1, V domains shown)
VH: QVQLVQSGAEVKKPGESLRISCQGSGYSFPTHWITWVRQMPGKGLEWMGTIDPTDSYNFYGPSFQGHVTISADSSSSTAYLQWSSLKASDTAMYYCARDGNYYDSRGYYYDTFDMWGQGTLVTVSS
VL: DIQMTQSPSSLSASVGDRVTITCRASQGISTYLAWYQQKPGKAPKLLIYSASTLESGVPSRFSGSGSGTDFTLTISSLQPEDFATYYCQQADSFPLTFGGGTKVEIK
notes: as for B2

Key:
[1] = target: T1, human c-Met (Sino Biological) (human, UniProt P08581 25-932, limits assumed); assay: derived from the Biacore KD, printed 'Average' 3.52 x10^-10 M divided by the KD
T1 construct: Analyte in the Biacore assay; also called antigen (c-Met); printed as "human c-Met antibody (Sino Biological, Beijing, China)"
Description: (§1) The candidate antibodies selected in Example 4 were measured for binding affinity for the antigen (c-Met) with the aid of Biacore. […] The anti-c-Met antibodies to be analyzed were immobilized on Protein A CM5 chips (GE Healthcare, Little Chalfont, UK) through which human c-Met antibody (Sino Biological, Beijing, China) with various concentrations ranging 0.15 to 2 nM was allowed to pass, thereby acquiring sensorgrams. On the basis of the acquired sensorgrams, association constants kₒₙ and dissociation constants koff were measured to calculate Ko value, the ratio koff/kₒₙ.
(§2) In order to select a final candidate group from the 21 candidate antibodies selected in Example 4, comparison was made according to criteria specified into expression level, binding affinity for antigen, thermal stability, and biopotency. As a rule, the expression level is considered to be the most important index when time and cost are taken into consideration from a point of view of production. […] Thereafter, degrees of improvement in each of the remaining candidate antibodies compared to the reference antibody (VH0/Vk0) were digitized with regard to the selected indices. For normalization, analysis index measurements for individual candidate antibodies were divided by average values to give ratios (index 1) which were in turn divided by the measurement for the antibody VH0/Vk0 (index 2) (Tables 6 to 9). In addition, the measurements for the four indices were multiplied for comprehensive comparison of the four indices of the candidate antibodies. The final results (index 3) are listed in a descending order in Table 10.

[2] = target: T1, human c-Met (Sino Biological); assay: SPR (Biacore T200), IgG captured on Protein A CM5 chip, c-Met 0.15-2 nM as analyte
Description: as §1

[3] = target: c-Met protein receptors on HUVEC (human, UniProt P08581 25-1390); assay: cell-based or functional assay
[4] = target: T1, human c-Met (Sino Biological); assay: derived from the Biacore KD, normalised to VH0/Vk0
Description: as §1, §2

T1 sequence (P08581 25-932 limits assumed): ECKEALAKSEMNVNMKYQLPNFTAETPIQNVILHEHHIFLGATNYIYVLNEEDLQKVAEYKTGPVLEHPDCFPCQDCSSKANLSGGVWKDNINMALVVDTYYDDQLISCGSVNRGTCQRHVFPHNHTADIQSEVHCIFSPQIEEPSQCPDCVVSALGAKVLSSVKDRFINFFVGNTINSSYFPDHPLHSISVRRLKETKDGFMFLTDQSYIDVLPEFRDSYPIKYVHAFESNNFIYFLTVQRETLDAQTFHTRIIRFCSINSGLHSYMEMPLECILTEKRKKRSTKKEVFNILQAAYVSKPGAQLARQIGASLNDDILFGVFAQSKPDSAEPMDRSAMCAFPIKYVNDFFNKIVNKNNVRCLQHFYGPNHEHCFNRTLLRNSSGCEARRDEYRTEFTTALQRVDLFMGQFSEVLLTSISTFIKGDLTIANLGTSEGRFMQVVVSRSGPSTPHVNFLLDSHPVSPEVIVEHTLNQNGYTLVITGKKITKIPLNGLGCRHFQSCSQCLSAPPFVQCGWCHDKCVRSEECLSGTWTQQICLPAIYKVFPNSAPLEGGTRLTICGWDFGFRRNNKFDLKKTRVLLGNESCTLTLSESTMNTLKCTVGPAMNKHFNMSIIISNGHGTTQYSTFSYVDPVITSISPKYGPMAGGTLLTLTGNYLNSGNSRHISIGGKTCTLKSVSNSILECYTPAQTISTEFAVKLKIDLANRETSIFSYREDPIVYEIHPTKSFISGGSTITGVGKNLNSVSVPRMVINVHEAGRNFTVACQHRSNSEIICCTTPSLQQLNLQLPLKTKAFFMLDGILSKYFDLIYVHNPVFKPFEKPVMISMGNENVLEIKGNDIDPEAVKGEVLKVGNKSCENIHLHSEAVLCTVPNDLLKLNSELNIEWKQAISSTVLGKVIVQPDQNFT
Sequence of c-Met protein receptors on HUVEC (P08581 25-1390): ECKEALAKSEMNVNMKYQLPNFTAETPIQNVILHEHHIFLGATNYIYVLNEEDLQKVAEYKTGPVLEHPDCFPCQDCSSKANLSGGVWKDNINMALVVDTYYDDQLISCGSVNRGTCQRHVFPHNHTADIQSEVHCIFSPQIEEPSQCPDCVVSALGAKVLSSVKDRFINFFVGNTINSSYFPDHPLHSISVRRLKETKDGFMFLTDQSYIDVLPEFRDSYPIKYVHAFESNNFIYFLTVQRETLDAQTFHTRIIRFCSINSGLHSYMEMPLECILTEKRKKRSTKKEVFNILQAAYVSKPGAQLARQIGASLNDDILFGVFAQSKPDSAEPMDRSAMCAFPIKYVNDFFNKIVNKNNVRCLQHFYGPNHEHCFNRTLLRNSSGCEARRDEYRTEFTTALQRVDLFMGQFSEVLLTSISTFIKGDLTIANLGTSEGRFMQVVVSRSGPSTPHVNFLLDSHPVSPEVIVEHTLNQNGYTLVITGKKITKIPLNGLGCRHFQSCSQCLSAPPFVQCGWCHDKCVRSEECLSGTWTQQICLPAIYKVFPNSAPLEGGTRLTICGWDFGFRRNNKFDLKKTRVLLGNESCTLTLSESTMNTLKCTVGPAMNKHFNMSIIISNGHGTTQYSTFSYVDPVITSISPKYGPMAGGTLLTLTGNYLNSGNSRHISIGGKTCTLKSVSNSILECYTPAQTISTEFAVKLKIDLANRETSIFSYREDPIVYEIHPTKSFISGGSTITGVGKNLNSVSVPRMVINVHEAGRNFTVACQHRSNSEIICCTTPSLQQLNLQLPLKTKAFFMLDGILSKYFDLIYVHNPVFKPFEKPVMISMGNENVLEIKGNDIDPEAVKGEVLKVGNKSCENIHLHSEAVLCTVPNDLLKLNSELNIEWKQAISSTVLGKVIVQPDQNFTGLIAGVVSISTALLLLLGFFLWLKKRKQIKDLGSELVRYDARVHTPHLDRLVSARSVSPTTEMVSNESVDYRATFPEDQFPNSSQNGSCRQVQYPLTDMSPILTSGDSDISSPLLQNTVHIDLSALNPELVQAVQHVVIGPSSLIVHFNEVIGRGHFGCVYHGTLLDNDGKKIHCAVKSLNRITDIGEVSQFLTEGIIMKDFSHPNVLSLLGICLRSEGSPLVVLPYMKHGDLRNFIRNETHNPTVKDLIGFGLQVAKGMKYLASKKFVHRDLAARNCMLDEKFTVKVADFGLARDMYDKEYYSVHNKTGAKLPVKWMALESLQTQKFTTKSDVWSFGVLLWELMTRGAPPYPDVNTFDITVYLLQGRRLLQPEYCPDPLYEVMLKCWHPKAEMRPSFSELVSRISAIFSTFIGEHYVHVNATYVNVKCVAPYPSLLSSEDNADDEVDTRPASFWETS

Binder	Index 1 (binding affinity, inverse KD relative to the Average 3.52) [1]	Kd [2]	Relative KD to VMDO2 VH0/Vk0 [2]	Index 1 (Relative Migration divided by the Average 157.5), HUVEC migration assay [3]	Index 2 (Relative Migration relative to VH0/Vk0), HUVEC migration assay [3]	Relative Migration (%), HUVEC migration assay, 90 ng/ml [3]	Index 2 (binding affinity, inverse KD relative to VH0/Vk0) [4]
B1	0.677	0.52 nM	1	0.951	1	150%	1
B2	0.701	0.502 nM	0.97	1.12	1.18	176%	1.04
B3	0.659	0.534 nM	1.03	0.993	1.04	156%	0.974
B4	0.688	0.512 nM	0.98	1.03	1.09	163%	1.02
